Experiment [1] concerns the target Lys63-linked Ub chains (on proteins in cells and in U2OS lysate). Description: cell-based or functional assay.
Experiment [2] has the same target. Nature of the experiment: cell-based or functional assay. The source holds these as a separate data set.

Read-outs that look alike come from different tables or passages of the source. Starred links: 1 amine or outer side, 2 acyl side, 3 side chain; linkers in the order of their positions; H or OH if unused. Positions of bridges follow the written chain, without caps; N, C: chain ends. No end group written: not given here. *: point of attachment. mClBz = N-terminal group cyclised as a benzyl thioether to a Cys, O=C(c1cccc(C[*:3])c1)[*:2]; C6F5 = pentafluorophenyl group on the Cys sulfur, Fc1c(F)c(F)c(*)c(F)c1F

B1: cyclic peptide 20, CP1-L1C-C6F5 (peptide)
peptide: mClBz-C(C6F5)LIWIGSSKNPYILCG
modifications: thioether N-15
In experiment [1], B1 showed a γ-H2AX level, western blot, HeLa cells of 2.4 fold and a γ-H2AX level, western blot, U2OS cells of 1.8 fold.

B2: cyclic peptide 2 (CP1-L1C) (peptide)
peptide: mClBz-CLIWIGSSKNPYILCG
modifications: bridge N-15; not fully specified (C-terminus, bridges)
In experiment [2], B2 returned an increase in the population of HeLa cells at G2/M phase, flow cytometry, 72 h of 5.2%; an increase in the population of HeLa cells at G2/M phase, flow cytometry, 96 h of 13%; an increase of overall Annexin V positive HeLa cells, 96 h of 14.5%; a relative tail moment, comet assay, U2OS cells of 8 fold. In experiment [2], the γ-H2AX level, western blot, HeLa cells came to 3.5 fold and the γ-H2AX level, western blot, U2OS cells stood at 3 fold.
